Here are results for 2 molecules from patent publication US20030119102A1.

The target in the assay is T1, rat Kv4.2 α-subunit (rat) (UniProt Q63881).
T1 sequence (looked up): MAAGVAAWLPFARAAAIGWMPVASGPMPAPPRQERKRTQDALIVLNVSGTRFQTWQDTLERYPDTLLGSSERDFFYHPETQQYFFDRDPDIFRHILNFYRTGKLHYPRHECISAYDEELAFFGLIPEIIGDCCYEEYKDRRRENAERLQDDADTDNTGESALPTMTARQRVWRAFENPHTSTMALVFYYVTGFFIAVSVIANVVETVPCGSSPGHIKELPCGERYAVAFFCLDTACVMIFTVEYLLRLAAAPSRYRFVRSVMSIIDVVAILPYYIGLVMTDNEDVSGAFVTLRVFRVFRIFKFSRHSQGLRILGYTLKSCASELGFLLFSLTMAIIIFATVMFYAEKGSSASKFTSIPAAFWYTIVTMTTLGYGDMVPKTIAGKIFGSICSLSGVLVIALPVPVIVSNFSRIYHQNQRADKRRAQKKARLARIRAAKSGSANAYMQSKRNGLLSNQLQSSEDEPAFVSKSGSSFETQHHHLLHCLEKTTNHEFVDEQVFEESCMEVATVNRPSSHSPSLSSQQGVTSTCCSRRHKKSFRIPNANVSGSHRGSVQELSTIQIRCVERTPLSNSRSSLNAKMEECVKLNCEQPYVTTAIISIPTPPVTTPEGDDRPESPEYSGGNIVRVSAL
Description: cell-based or functional assay.

B1: KChIP2 (9ql) (protein, UniProt Q9NS61 1-270, looked up, species assumed)
A-type potassium channel modulatory protein KCNIP2: MRGQGRKESLSDSRDLDGSYDQLTGHPPGPTKKALKQRFLKLLPCCGPQALPSVSETLAAPASLRPHRPRLLDPDSVDDEFELSTVCHRPEGLEQLQEQTKFTRKELQVLYRGFKNECPSGIVNEENFKQIYSQFFPQGDSSTYATFLFNAFDTNHDGSVSFEDFVAGLSVILRGTVDDRLNWAFNLYDLNKDGCITKEEMLDIMKSIYDMMGKYTYPALREEAPREHVESFFQKMDRNKDGVVTIEEFIESCQKDENIMRSMQLFDNVI
Take B1: the Inactivation time constant (ms, at 50 mV), CHO cells (rKv4.2 + vector: 28.2) is 95.1 ms; the Peak Current (nA/cell at 50 mV), CHO cells, patch clamp (rKv4.2 + vector: 0.60) was 3.3 nA/cell; the Peak Current Density (pA/pF at 50 mV), CHO cells (rKv4.2 + vector: 25.5) was 197 pA/pF; the Recovery from Inactivation Time constant, CHO cells (rKv4.2 + vector: 272.2) stood at 49.5 ms.

B2: KChIP3 (p19) (protein, UniProt Q9Y2W7 1-256, looked up, species assumed)
Calsenilin: MQPAKEVTKASDGSLLGDLGHTPLSKKEGIKWQRPRLSRQALMRCCLVKWILSSTAPQGSDSSDSELELSTVRHQPEGLDQLQAQTKFTKKELQSLYRGFKNECPTGLVDEDTFKLIYAQFFPQGDATTYAHFLFNAFDADGNGAIHFEDFVVGLSILLRGTVHEKLKWAFNLYDINKDGYITKEEMLAIMKSIYDMMGRHTYPILREDAPAEHVERFFEKMDRNQDGVVTIEEFLEACQKDENIMSSMQLFENVI
Regarding B2, the Inactivation time constant (ms, at 50 mV), CHO cells (rKv4.2 + vector: 28.2) amounted to 67.2 ms; the Peak Current (nA/cell at 50 mV), CHO cells, patch clamp (rKv4.2 + vector: 0.60) turned out to be 3.5 nA/cell; the Peak Current Density (pA/pF at 50 mV), CHO cells (rKv4.2 + vector: 25.5) worked out at 162 pA/pF; the Recovery from Inactivation Time constant, CHO cells (rKv4.2 + vector: 272.2) came to 126 ms.
